Target: inactive hepatocyte growth factor (pro-HGF), single-stranded form, in CHO culture supernatant
Sequence (chain, as listed by the source): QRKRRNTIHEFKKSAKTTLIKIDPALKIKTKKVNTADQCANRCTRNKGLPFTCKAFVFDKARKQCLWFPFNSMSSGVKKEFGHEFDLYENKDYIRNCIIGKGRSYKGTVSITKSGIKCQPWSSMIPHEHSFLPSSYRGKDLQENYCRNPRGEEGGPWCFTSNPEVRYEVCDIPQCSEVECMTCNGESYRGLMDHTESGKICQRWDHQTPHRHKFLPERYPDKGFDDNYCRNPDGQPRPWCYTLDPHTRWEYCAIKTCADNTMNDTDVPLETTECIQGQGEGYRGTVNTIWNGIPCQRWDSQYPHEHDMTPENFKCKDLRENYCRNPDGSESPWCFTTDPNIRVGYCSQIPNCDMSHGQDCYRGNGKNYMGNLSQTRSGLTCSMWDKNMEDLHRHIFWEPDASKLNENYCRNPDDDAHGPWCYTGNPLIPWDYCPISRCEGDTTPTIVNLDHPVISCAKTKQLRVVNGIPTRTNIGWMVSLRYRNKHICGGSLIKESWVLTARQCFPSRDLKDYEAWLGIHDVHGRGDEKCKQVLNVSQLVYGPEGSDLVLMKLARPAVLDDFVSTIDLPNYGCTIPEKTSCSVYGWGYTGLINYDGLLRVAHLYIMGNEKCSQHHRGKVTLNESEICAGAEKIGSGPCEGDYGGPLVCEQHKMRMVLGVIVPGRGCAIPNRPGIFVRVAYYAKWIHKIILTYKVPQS

B1: active hepatocyte growth factor activator (active HGFA), as activated HGFA culture supernatant from CHO cells (protein)
chain: VQLSPDLLATLPEPASPGRQACGRRHKKRTFLRPRIIGGSSSLPGSHPWLAAIYIGDSFCAGSLVHTCWVVSAAHCFSHSPPRDSVSVVLGQHFFNRTTDVTQTFGIEKYIPYTLYSVFNPSDHDLVLIRLKKKGDRCATRSQFVQPICLPEPGSTFPAGHKCQIAGWGHLDENVSGYSSSLREALVPLVADHKCSSPEVYGADISPNMLCAGYFDCKSDACQGDSGGPLACEKNGVAYLYGIISWGDGCGRLHKPGVYTRVANYVDWINDRIRPPRRLVAPS
activation state of pro-HGF confirmed with SDS-PAGE (conversion of the single strand into α and β chains) after about 20 hours of reaction at 25° C.: under a reductive condition after activation the single strand substance had disappeared and separated into α and β chains, and thus sufficient activation of pro-HGF was confirmed
